Literature values, collected in patent US9867860B2, “Formulations for preventing and treating decreasing platelet cell counts” (priority 2013, dated 2018).

Experiments:
[1] = tested on: patients with ITP and liver disease; conditions: for side effects: human, in vivo
[2] = tested on: refractory immune thrombocytopenia; conditions: two cases; high-dose vitamin D supplementation and hydroxychloroquine in combination
thrombocytopenia = conditions: Vitamin B12 and folate together, deficiency
[3] = tested on: patients with solid tumors who had previously received platelet transfusion because of myelosuppression; conditions: randomized, placebo-controlled trial
[4] = tested on: thrombocytopenia associated with chemotherapy, HCV infection, or early liver cirrhosis

## CC1=NN(c2ccc(C)c(C)c2)C(=O)/C1=N\Nc1cccc(-c2cccc(C(=O)O)c2)c1O [Eltrombopag]
[1]
  side effects: bone marrow fibrosis, thrombosis, and ocular toxicities

## CCN(CCO)CCCC(C)Nc1ccnc2cc(Cl)ccc12 (stereo not shown) [hydroxychloroquine, reference compound]
[2]
  treatment outcome of refractory immune thrombocytopenia: successfully treated

## Romiplostim
[1]
  side effects: bone marrow fibrosis, thrombosis, and ocular toxicities
[1]; patients with ITP and liver disease, continuous treatment
  platelet count: increase platelet count

## Vitamin B12
thrombocytopenia
  correction of thrombocytopenia on repletion: rapidly corrects

## vitamin D
[2]
  treatment outcome of refractory immune thrombocytopenia: successfully treated

B1: IL-11: recombinant human IL-11, cytokine stimulating megakaryocyte maturation (protein, UniProt P20809 22-199, looked up)
Interleukin-11: PGPPPGPPRVSPDPRAELDSTVLLTRSLLADTRQLAAQLRDKFPADGDHNLDSLPTLAMSAGALGALQLPGVLTRLRADLLSYLRHVQWLRRAGGSSLKTLEPELGTLQARLDRLLRRLQLLMSRLALPQPPPDPPAPPLAPPSSAWGGIRAAHAILGGLHLTLDWAVRGLLLLKTRL
[3]
  reduction of the number of patients in need of platelet transfusions: 26%
Myelosuppressed mice; d7
  platelet counts, IL-11 group versus peanut skins extract group: significantly higher
Myelosuppressed mice; d7, subcutaneous
  platelet counts versus control thrombocytopenia group: significantly improved
Myelosuppressed mice; d10, subcutaneous
  platelet counts: further improved
[4]; human, in vivo
  other side effects: dyspnea, atrial arrhythmias, syncope, and fatigue
  side effect: edema, share of patients: more than 50 % of patients
[4]; thrombocytopenia associated with chemotherapy, HCV infection, or early liver cirrhosis, in some degree
  correction of thrombocytopenia: could correct thrombocytopenia
